In publication PMC5709738 (The EMBO Journal, 2017):

Key:
[1] = target: T1, full-length Ctf19-Mcm21 (K. lactis) (Kluyveromyces lactis, UniProt Q6CRN7 1-270; Q6CVQ9 1-293); experiment: MST
T1 chain 1: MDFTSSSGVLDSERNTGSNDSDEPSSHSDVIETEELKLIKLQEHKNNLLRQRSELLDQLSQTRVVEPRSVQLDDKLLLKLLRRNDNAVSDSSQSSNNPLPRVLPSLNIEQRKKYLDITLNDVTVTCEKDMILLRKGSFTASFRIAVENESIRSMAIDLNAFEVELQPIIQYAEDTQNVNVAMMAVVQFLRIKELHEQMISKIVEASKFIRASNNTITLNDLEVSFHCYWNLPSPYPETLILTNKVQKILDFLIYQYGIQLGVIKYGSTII
T1 chain 2: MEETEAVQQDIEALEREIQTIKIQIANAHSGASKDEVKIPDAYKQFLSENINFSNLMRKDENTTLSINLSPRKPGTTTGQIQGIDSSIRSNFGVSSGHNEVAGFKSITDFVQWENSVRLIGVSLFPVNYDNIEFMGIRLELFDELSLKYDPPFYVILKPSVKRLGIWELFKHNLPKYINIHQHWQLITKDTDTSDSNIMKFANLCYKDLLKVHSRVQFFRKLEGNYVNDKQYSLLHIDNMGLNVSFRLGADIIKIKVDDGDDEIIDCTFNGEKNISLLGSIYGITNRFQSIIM

[2] = target: T2, Okp1 (K. lactis, full length) (Kluyveromyces lactis, UniProt Q6CJY0 1-383); experiment: native MS; nanoflow spectra and tandem mode with collision-induced dissociation in the gas phase (argon); subassemblies stripped of subunits; settings: both partners purified
T2 construct: Okp1 (CENP-Q orthologue) of Kluyveromyces lactis; also called Okp1^CENP-Q; outer kinetochore protein 1; source: E. coli BL21 Rosetta 2(DE3)pLysS, co-expressed as COMA, purified
T2 sequence (looked up): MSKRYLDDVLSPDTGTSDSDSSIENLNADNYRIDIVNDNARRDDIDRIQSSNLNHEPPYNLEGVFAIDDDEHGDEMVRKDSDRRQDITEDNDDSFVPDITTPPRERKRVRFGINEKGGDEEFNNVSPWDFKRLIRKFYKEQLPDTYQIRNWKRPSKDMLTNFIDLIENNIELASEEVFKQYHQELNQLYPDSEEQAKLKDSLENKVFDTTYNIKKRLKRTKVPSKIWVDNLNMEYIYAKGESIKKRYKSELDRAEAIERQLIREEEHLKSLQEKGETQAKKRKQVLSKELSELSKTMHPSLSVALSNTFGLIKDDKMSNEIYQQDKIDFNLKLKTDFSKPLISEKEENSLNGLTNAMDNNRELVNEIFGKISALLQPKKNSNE

[3] = target: T3, Ame1-Okp1 (K. lactis, full length) (Kluyveromyces lactis, UniProt Q6CUE5 1-292; Q6CJY0 1-383); experiment: as above; settings: both partners purified
T3 construct: Ame1 of Kluyveromyces lactis; Okp1 of Kluyveromyces lactis; stands as the Ame1-Okp1 part of COMA; also called Okp1-Ame1; source: E. coli BL21 Rosetta 2(DE3)pLysS, co-expressed with Ctf19 and Mcm21 versions
T3 sequence (looked up) 1: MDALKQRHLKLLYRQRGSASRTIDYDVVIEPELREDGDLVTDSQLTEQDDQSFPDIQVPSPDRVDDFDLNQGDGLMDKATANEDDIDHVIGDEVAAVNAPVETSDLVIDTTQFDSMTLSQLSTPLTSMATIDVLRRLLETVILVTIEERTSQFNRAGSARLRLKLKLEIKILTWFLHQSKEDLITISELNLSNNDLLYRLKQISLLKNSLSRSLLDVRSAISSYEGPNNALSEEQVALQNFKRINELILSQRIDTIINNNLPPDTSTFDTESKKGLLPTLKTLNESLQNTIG
T3 sequence (looked up) 2: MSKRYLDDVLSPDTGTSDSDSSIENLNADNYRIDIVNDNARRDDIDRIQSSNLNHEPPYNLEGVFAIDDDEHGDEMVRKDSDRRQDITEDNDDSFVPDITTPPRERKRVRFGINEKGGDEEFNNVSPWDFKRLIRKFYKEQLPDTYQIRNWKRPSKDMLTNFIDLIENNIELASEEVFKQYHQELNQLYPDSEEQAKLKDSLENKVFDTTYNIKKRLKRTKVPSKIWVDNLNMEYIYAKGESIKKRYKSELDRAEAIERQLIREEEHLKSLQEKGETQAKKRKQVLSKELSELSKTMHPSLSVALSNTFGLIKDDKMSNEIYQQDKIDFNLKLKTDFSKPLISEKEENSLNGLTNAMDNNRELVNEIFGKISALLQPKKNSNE

[4] = target: T4, COMA (K. lactis, full length: Ame1, Ctf19, Mcm21, Okp1) (Kluyveromyces lactis, UniProt Q6CUE5 1-292; Q6CRN7 1-270; Q6CVQ9 1-293; Q6CJY0 1-383); experiment: as above; settings: both partners purified
T4 construct: Ame1 of Kluyveromyces lactis; Ctf19 of Kluyveromyces lactis; Mcm21 of Kluyveromyces lactis; Okp1 of Kluyveromyces lactis; copies: + + +
T4 sequence (looked up) 1: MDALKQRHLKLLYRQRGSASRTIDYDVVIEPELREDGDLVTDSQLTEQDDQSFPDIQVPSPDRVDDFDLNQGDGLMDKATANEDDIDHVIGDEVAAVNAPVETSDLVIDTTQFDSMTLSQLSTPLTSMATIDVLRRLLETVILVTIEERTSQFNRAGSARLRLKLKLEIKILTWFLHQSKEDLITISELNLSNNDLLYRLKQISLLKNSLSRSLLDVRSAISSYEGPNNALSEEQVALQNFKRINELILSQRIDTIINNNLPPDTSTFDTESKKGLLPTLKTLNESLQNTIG
T4 sequence (looked up) 2: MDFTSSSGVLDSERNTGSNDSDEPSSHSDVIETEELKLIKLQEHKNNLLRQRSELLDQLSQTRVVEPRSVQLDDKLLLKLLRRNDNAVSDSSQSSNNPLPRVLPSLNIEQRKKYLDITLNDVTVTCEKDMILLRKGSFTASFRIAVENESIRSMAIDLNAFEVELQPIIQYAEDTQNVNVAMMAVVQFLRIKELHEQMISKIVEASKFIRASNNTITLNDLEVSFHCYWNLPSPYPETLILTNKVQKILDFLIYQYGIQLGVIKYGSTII
T4 sequence (looked up) 3: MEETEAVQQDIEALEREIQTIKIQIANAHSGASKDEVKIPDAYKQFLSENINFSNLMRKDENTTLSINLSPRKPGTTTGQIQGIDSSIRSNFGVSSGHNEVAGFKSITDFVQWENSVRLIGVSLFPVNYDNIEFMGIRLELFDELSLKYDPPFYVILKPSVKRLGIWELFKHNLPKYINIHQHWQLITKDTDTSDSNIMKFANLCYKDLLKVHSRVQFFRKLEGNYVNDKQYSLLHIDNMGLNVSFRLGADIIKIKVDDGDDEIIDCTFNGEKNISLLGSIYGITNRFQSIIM
T4 sequence (looked up) 4: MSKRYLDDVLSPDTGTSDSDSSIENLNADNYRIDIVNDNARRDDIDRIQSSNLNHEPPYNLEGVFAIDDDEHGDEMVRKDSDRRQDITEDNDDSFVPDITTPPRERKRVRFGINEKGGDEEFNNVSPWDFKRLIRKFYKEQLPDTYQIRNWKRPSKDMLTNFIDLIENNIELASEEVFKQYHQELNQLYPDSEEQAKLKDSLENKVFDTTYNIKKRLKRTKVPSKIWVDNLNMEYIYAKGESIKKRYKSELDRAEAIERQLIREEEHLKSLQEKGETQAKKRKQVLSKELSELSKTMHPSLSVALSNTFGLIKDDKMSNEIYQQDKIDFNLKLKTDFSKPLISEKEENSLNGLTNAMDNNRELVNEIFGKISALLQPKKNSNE

[5] = target: the molecule itself; experiment: native MS; nanoflow electrospray of intact assemblies in 200 mM ammonium acetate pH 6.7-7.3 or 7.4; higher micromolar concentrations (COMA ~3 or ~6 uM; COMA-Nkp1-Nkp2 ~3 uM)
[6] = target: T5, full-length Ctf19-Mcm21 (K. lactis) (Kluyveromyces lactis, UniProt Q6CRN7 1-270; Q6CVQ9 1-293); experiment: MST; Ctf19-Mcm21 labelled with NT-647-NHS on lysines, ~27 nM; dilution series of peptide; 22-25°C; ITC/MST buffer; three dilution series; settings: both partners purified
T5 construct: Ctf19 of Kluyveromyces lactis; Mcm21 of Kluyveromyces lactis; for microscale thermophoresis it was labelled on lysine side chains with the red dye NT-647-NHS; also stands for the Ctf19-Mcm21 subassembly of COMA in nanoflow mass spectra; source: E. coli BL21 Rosetta 2(DE3)pLysS, co-expressed, purified
T5 sequence (looked up) 1: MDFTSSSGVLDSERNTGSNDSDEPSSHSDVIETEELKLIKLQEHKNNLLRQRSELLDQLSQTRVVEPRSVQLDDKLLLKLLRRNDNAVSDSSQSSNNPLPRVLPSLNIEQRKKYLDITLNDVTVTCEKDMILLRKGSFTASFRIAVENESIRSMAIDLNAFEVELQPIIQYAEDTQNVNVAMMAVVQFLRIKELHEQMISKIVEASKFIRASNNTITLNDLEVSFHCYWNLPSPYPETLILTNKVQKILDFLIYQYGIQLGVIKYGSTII
T5 sequence (looked up) 2: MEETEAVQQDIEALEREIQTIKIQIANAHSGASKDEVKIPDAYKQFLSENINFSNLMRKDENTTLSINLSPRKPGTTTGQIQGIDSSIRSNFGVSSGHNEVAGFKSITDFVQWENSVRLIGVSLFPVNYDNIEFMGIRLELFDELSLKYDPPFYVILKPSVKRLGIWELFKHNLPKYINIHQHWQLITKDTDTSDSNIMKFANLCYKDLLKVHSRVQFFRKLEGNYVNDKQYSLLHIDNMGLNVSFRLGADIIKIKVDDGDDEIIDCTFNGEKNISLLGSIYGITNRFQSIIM

B1: K332P (peptide)
chain: SNEIYQQDKIDFNLPLKTDF
modifications: synthetic peptide; terminal chemistry not stated
Kd [1]: 9.75 µM

B2: Nkp1 (K. lactis) (natural protein, Kluyveromyces lactis, UniProt Q6CPR4 1-210, looked up)
chain: MDLESEIIQLVRQNIRPKFPSLNDEQQARLDNALKYDVNYDILKKELVEYIDDWKRNEYYDVLTNIGDLQRLDLGNMLNGDGVSFPKLHSDLANLPRFRLIDNENEMDQSLLHKYDSLRTRLIEKCRAIELIRSATNTDVNYQDINSMLSVVELRQWRDEIQMEWKELAQNLELILKTWPDLTEEKRSKLLQLIDSSSLKSILHIKDNIE
notes: Nkp1 of Kluyveromyces lactis; also called non-essential kinetochore protein 1; HisNkp1; source: E. coli BL21 Rosetta 2(DE3)pLysS, purified
binding result [2]: binds
binding result [3]: binds
binding result [4]: binds

B3: COMA-Nkp1-Nkp2 (K. lactis, full length) (complex, Kluyveromyces lactis)
chain 1: MDALKQRHLKLLYRQRGSASRTIDYDVVIEPELREDGDLVTDSQLTEQDDQSFPDIQVPSPDRVDDFDLNQGDGLMDKATANEDDIDHVIGDEVAAVNAPVETSDLVIDTTQFDSMTLSQLSTPLTSMATIDVLRRLLETVILVTIEERTSQFNRAGSARLRLKLKLEIKILTWFLHQSKEDLITISELNLSNNDLLYRLKQISLLKNSLSRSLLDVRSAISSYEGPNNALSEEQVALQNFKRINELILSQRIDTIINNNLPPDTSTFDTESKKGLLPTLKTLNESLQNTIG
chain 2: MDFTSSSGVLDSERNTGSNDSDEPSSHSDVIETEELKLIKLQEHKNNLLRQRSELLDQLSQTRVVEPRSVQLDDKLLLKLLRRNDNAVSDSSQSSNNPLPRVLPSLNIEQRKKYLDITLNDVTVTCEKDMILLRKGSFTASFRIAVENESIRSMAIDLNAFEVELQPIIQYAEDTQNVNVAMMAVVQFLRIKELHEQMISKIVEASKFIRASNNTITLNDLEVSFHCYWNLPSPYPETLILTNKVQKILDFLIYQYGIQLGVIKYGSTII
chain 3: MEETEAVQQDIEALEREIQTIKIQIANAHSGASKDEVKIPDAYKQFLSENINFSNLMRKDENTTLSINLSPRKPGTTTGQIQGIDSSIRSNFGVSSGHNEVAGFKSITDFVQWENSVRLIGVSLFPVNYDNIEFMGIRLELFDELSLKYDPPFYVILKPSVKRLGIWELFKHNLPKYINIHQHWQLITKDTDTSDSNIMKFANLCYKDLLKVHSRVQFFRKLEGNYVNDKQYSLLHIDNMGLNVSFRLGADIIKIKVDDGDDEIIDCTFNGEKNISLLGSIYGITNRFQSIIM
chain 4: MSKRYLDDVLSPDTGTSDSDSSIENLNADNYRIDIVNDNARRDDIDRIQSSNLNHEPPYNLEGVFAIDDDEHGDEMVRKDSDRRQDITEDNDDSFVPDITTPPRERKRVRFGINEKGGDEEFNNVSPWDFKRLIRKFYKEQLPDTYQIRNWKRPSKDMLTNFIDLIENNIELASEEVFKQYHQELNQLYPDSEEQAKLKDSLENKVFDTTYNIKKRLKRTKVPSKIWVDNLNMEYIYAKGESIKKRYKSELDRAEAIERQLIREEEHLKSLQEKGETQAKKRKQVLSKELSELSKTMHPSLSVALSNTFGLIKDDKMSNEIYQQDKIDFNLKLKTDFSKPLISEKEENSLNGLTNAMDNNRELVNEIFGKISALLQPKKNSNE
chain 5: MDLESEIIQLVRQNIRPKFPSLNDEQQARLDNALKYDVNYDILKKELVEYIDDWKRNEYYDVLTNIGDLQRLDLGNMLNGDGVSFPKLHSDLANLPRFRLIDNENEMDQSLLHKYDSLRTRLIEKCRAIELIRSATNTDVNYQDINSMLSVVELRQWRDEIQMEWKELAQNLELILKTWPDLTEEKRSKLLQLIDSSSLKSILHIKDNIE
chain 6: MLHEVLYKHLDGILVSRLYTEDQFVDLFSRTIPESNTVIASQLYKSYEENDQRIIEKIDKLIDNKLSLIRVELEREQIEDSISLEEVNKLLHSIDDMLQQHLNQLNIELDNKNTKLLKYAMELSDIEAIDTSMYDNVAKLITDMETNQPSS
notes: Ame1 of Kluyveromyces lactis; Ctf19 of Kluyveromyces lactis; Mcm21 of Kluyveromyces lactis; N-terminal SNA residual; Okp1 of Kluyveromyces lactis; Nkp1 of Kluyveromyces lactis; Nkp2 of Kluyveromyces lactis; source: E. coli BL21 Rosetta 2(DE3)pLysS, reconstituted, purified (SEC); not shown: polyhistidine, N-terminal, cleaved; copies: + + + + +
stoichiometry N [5]: 2

B4: Okp1 peptide variant N330A (peptide, UniProt Q6CJY0 318-337, looked up)
peptide: SNEIYQQDKIDFALKLKTDF
notes: source: synthetic peptide (Protein Chemistry core facility, IMP, Vienna)
Kd [1]: 5.51 µM
binding result [6]: binds

B5: D328A-F329A (peptide)
chain: SNEIYQQDKIAANLKLKTDF
modifications: synthetic peptide; terminal chemistry not stated
Kd [1]: 64 µM
